According to patent US20160068860A1, “TRANSGENIC PLANTS” (CONSEJO SUPERIOR DE INVESTIGACIONES CIENTIFICAS (CSIC), priority 2013, published 2016):
Positions count from the first letter of the chain named. In names and notes the source's numbering stands.

T1: PP2CA (clade A protein phosphatase 2C, At3g11410) (Arabidopsis thaliana, UniProt P49598 1-399, limits assumed)
T1 construct: BiFC: PP2CA-YFPN (pSPYNE-35S); also called AtPP2CA
T1 sequence (looked up): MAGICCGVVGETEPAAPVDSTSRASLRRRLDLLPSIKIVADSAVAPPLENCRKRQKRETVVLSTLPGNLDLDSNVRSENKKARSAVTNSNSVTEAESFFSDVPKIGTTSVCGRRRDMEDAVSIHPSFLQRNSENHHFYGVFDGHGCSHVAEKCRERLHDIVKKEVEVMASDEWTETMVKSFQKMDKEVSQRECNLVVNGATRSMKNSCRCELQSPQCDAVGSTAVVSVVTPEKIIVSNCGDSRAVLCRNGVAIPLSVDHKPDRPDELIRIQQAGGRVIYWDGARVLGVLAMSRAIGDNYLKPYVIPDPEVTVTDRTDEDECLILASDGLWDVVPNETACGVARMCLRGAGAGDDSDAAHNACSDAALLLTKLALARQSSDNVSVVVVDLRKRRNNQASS

B1: PYL4H82R V97A (AtPYL H82 and V97A) (receptor)
chain: MLAVHRPSSAVSDGDSVQIPMMIASFQKRFPSLSRDSTAARFHTHEVGPNQCCSAVIQEISAPISTVWSVVRRFDNPQAYKRFLKSCSVIGGDGDNAGSLRQVHVVSGLPAASSTERLDILDDERHVISFSVVGGDHRLSNYRSVTTLHPSPISGTVVVESYVVDVPPGNTKEETCDFVDVIVRCNLQSLAKIAENTAAESKKKMSL
notes: also called PYL4H82R (found combined with V97A)
B2: PYL4A194T: AtPYL4 ABA receptor mutant polypeptide with A194T substitution (SEQ ID NO. 60; nucleic acid SEQ ID NO: 55); also over-expressed in plants (protein, listed as Arabidopsis thaliana)
chain: B1 chain with R82H, A97V, A194T

Experiments:
PP2CA [1] = test: BiFC assay with PP2CA in N. benthamiana leaves; assay type: cell-based; details: no exogenous ABA
Method: (§1) Experiments were performed basically as described by Voinnet et al., (2003). The different binary vectors described above where introduced into Agrobacterium tumefaciens C58C1 (pGV2260) (Deblaere et al., 1985) by electroporation and transformed cells were selected in LB plates supplemented with kanamycin (50 μg/ml). Then, they were grown in liquid LB medium to late exponential phase and cells were harvested by centrifugation and resuspended in 10 mM morpholinoethanesulphonic (MES) acid-KOH pH 5.6 containing 10 mM MgCl2 and […] acetosyringone to an OD600 nm of 1. These cells were mixed with an equal volume of Agrobacterium C58C1 (pCH32 35S:p19) expressing the silencing suppressor p19 of tomato bushy stunt virus (Voinnet et al., 2003) so that the final density of Agrobacterium solution was about 1. Bacteria were incubated for 3 h at room temperature and then injected into young fully expanded leaves of 4-week-old N. benthamiana plants. Leaves were examined after 3-4 days under a Leica TCS-SL confocal microscope and laser scanning confocal imaging system. Quantification of fluorescent protein signal was done as described (Gampala et al., 2007) using the National Institutes of Health (NIH) Image software ImageJ v1.37. […]

PP2CA [2] = test: In vitro phosphatase activity assay with pNPP substrate, PP2CA; assay type: biochemical, Arabidopsis; details: absence of ABA
Method: (§2) Phosphatase activity was measured using as a substrate either pNPP or phosphorylated ΔC-ABF2, ΔC-ABI5 and SLAC11-186 proteins. For the pNPP substrate, assays were performed in a 100 μl solution containing 25 mM Tris-HCl pH 7.5, 2 mM MnCl2 and 5 mM pNPP. Assays contained 2 μM phosphatase (PP2CA or HAB1), 4 μM receptor and the indicated concentrations of ABA. Phosphatase activity was recorded with a ViktorX5 reader at 405 nm every 60 seconds over 30 minutes and the activity obtained after 30 minutes is indicated in the graphics. In order to obtain phosphorylated ΔCABF2, ΔC-ABI5 and SLAC11-186 proteins, OST1 phosphorylation assays were done basically as described previously (Dupeux et al., 2011 b). ΔC-ABF2 and SLAC11-186 N-terminal fragments were prepared as described (Antoni et al., 2012; Vahisalu et al., 2010). ΔC-ABI5 recombinant protein (amino acid residues 1-200, containing the C1, C2 and C3 target sites of ABA-activated SnRK2s) was expressed in the pETM11 vector as described above. The reaction mixture containing the OST1 kinase and either ΔCABF2, ΔC-ABI5 or SLAC11-186 recombinant proteins were incubated for 50 min at room temperature in 30 μl of kinase buffer: 20 mM Tris-HCl pH 7.8, 20 mM MgCl2, 2 mM MnCl2, and 3.5 μCi of γ-32ATP (3000 Ci/mmol). Thus, OST1 was autophosphorylated and in turn it phosphorylated ΔC-ABF2, ΔC-ABI5 and SLAC11-186 proteins. Next, they were used as substrates of PP2CA that was preincubated (or not) for 10 with PYL4 or PYL4A194T (1:10 phosphatase:receptor ratio) either in the absence or presence of 30 μM ABA. The reaction was stopped by adding Laemmli buffer and the proteins were separated by SDS-PAGE using an 8% acrylamide gel and transferred to an Immobilon-P membrane (Millipore). Radioactivity was detected and quantified using a Phosphorimage system (FLA5100, Fujifilm). After scanning, the same membrane was used for Ponceau staining. The data presented are averages of at least three independent experiments.

[3] = biological target: T1, PP2CA (clade A protein phosphatase 2C, …); test: yeast two-hybrid growth assay, absence of ABA; H82R was found combined with V97A
RAB18 = test: Quantitative RT-PCR of ABA-responsive gene RAB18 in OE plants; assay type: in vivo, Arabidopsis thaliana
Method: (§3) ABA treatment, RNA extraction and quantitative RT-PCR amplifications were performed as previously described (Saez et al., 2004).

RD29B = test: Quantitative RT-PCR of ABA-responsive gene RD29B in OE plants; assay type: in vivo, Arabidopsis thaliana
Method: as §3

PP2CA [4] = biological target: T2, PP2CA (Arabidopsis thaliana, UniProt O80920+P49598, A194T); test: In vitro phosphatase activity assay with pNPP substrate, PP2CA; assay type: biochemical; set-up: made in house; host or cells: E. coli BL21 (DE3); details: for inhibitory effect on the activity of PP2CA with respect to PYL4: absence of ABA, 2 μM phosphatase, 4 μM receptor
Method: as §2

PP2CA [5] = biological target: T2, PP2CA; test: BiFC assay with PP2CA in N. benthamiana leaves; assay type: cell-based; set-up: expressed in transfected cells; host or cells: N. benthamiana leaf epidermal cells (Agroinfiltration); details: no exogenous ABA; compared to PYL4
Method: as §1

[6] = absence of exogenous ABA treatment

T2 sequence (O80920 whole entry A194T, one chain of several): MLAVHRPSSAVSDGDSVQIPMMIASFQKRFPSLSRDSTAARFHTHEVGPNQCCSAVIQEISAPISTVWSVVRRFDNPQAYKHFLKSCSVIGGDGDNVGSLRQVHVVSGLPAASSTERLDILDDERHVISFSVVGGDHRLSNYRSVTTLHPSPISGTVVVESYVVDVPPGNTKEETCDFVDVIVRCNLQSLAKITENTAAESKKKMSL

Row | Molecule | localization of interaction with PP2CA (PP2CA [1]) | effect on PP2CA activity (PP2CA [2]) | binding result [3] | induction of RAB18 after ABA-treatment (RAB18; 10 μM ABA for 3 h) | expression of RAB18 up-regulated compared to non-transformed plants (RAB18; [6]) [fold] | induction of RD29B after ABA-treatment (RD29B; 10 μM ABA for 3 h) | expression of RD29B up-regulated compared to non-transformed plants (RD29B; [6]) [fold] | inhibitory effect on the activity of PP2CA with respect to PYL4 (PP2CA [4]) | inhibitory effect on the activity of PP2CA with respect to PYL4 (PP2CA [4]; listed as PYL4^A194T) [%] | inhibition of PP2CA (PP2CA [4]; presence of 1 μM ABA) | relative fluorescence emission of interaction with PP2CA (PP2CA [5])
1 | PYL4: AtPYL4 wild type ABA receptor polypeptide (SEQ ID NO:3, At2g38310) [reference compound] | localized mostly to the nucleus | – | – | – | – | – | – | – | – | – | –
2 | B1 | – | did not affect PP2CA activity | binds | – | – | – | – | – | – | – | –
3 | B2 | relatively much more abundant in the cytosol compared to PYL4 | – | – | not higher than in non-transformed plants | 6 | not higher than in non-transformed plants | 23 | around 20% | 20 | higher inhibition of PP2CA than PYL4 | higher
